Measured values from the supplement of paper PMC6755084.

B1: F1*; the commonest letter at each place (parent)
chain: GAGACCGCAACTGAAAAGTTGTTATCACTTGTCGTAAGACACTTTGGATGGGTTGAAGTTCTGCACGTAGAAGCAAAAGGC

Variants of: B1
Assay: fraction ligated after 30 min (ligated reads / total reads); higher = more ligase activity
Conditions: with F1*sub RNA substrate (template-directed ligation), 42 °C
Summary of the method: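 Oligo-pool templates of ligase ribozyme variants were PCR-amplified, T7-transcribed and gel-purified. Ligated and unligated bands were gel-separated, reverse transcribed with barcoded primers, and MiSeq-sequenced; core bases were filtered at quality ≥20. Fraction ligated per variant was ligated reads over total reads.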

Variant	fraction ligated
A48C T49G	0.763
A48G	0.794
A48G A56C	0.259
A48G A56G	0.399
A48G A56T	0.357
A48G A57C	0.792
A48G A57G	0.803
A48G A57T	0.795
A48G G50A	0.118
A48G G50C	0.0771
A48G G50T	0.235
A48G G55A	0.787
A48G G55C	0.108
A48G G55T	0.686
A48G T49A	0.678
A48G T49C	0.504
A48G T49G	0.752
A48T	0.768
A48T A56C	0.0454
A48T A56G	0.0654
A48T A56T	0.0621
A48T A57C	0.68
A48T A57G	0.787
A48T A57T	0.546

Variant	fraction ligated
A48T G50A	0.158
A48T G50C	0.0873
A48T G50T	0.392
A48T G55A	0.515
A48T G55C	0.0233
A48T G55T	0.17
A48T T49A	0.565
A48T T49C	0.139
A48T T49G	0.348
T49A	0.777
T49A A56C	0.102
T49A A56G	0.116
T49A A56T	0.209
T49A A57C	0.629
T49A A57G	0.792
T49A A57T	0.724
T49A G50A	0.281
T49A G50C	0.502
T49A G50T	0.769
T49A G55A	0.62
T49A G55C	0.129
T49A G55T	0.24
T49C	0.731
T49C A56C	0.0481

Variant	fraction ligated
T49C A56G	0.0622
T49C A56T	0.0726
T49C A57C	0.266
T49C A57G	0.445
T49C A57T	0.3
T49C G50A	0.216
T49C G50C	0.455
T49C G50T	0.714
T49C G55A	0.335
T49C G55C	0.0675
T49C G55T	0.091
T49G	0.778
T49G A56C	0.109
T49G A56G	0.0888
T49G A56T	0.191
T49G A57C	0.523
T49G A57G	0.734
T49G A57T	0.706
T49G G50A	0.388
T49G G50C	0.0713
T49G G50T	0.667
T49G G55A	0.688
T49G G55C	0.136
T49G G55T	0.243

Variant	fraction ligated
G50A	0.589
G50A A56C	0.0252
G50A A56G	0.0277
G50A A56T	0.0351
G50A A57C	0.0747
G50A A57G	0.251
G50A A57T	0.216
G50A G55A	0.178
G50A G55C	0.0427
G50A G55T	0.0307
G50C	0.424
G50C A56C	0.00754
G50C A56G	0.0166
G50C A56T	0.0147
G50C A57C	0.033
G50C A57G	0.104
G50C A57T	0.0648
G50C G55A	0.112
G50C G55C	0.0221
G50C G55T	0.0259
G50T	0.743
G50T A56C	0.0586
G50T A56G	0.0624
G50T A56T	0.0827

Variant	fraction ligated
G50T A57C	0.172
G50T A57G	0.526
G50T A57T	0.324
G50T G55A	0.455
G50T G55C	0.143
G50T G55T	0.123
G51A	0.797
G51C	0.812
G51T	0.792
G52A	0.827
G52C	0.726
G52T	0.695
T53A	0.834
T53C	0.849
T53G	0.831
T54A	0.828
T54C	0.846
T54G	0.807
G55A	0.822
G55A A56C	0.729
G55A A56C A57C	0.0438
G55A A56C A57G	0.0754
G55A A56C A57T	0.151
G55A A56G	0.821

Variant	fraction ligated
G55A A56G A57C	0.131
G55A A56G A57G	0.338
G55A A56G A57T	0.152
G55A A56T	0.8
G55A A56T A57C	0.0139
G55A A56T A57G	0.143
G55A A56T A57T	0.161
G55A A57C	0.786
G55A A57G	0.833
G55A A57T	0.801
G55C	0.778
G55C A56C	0.218
G55C A56C A57C	0.0245
G55C A56C A57G	0.0246
G55C A56C A57T	0.0335
G55C A56G	0.843
G55C A56G A57C	0.104
G55C A56G A57G	0.0448
G55C A56G A57T	0.0232
G55C A56T	0.737
G55C A56T A57C	0.00477
G55C A56T A57G	0.0294
G55C A56T A57T	0.0179
G55C A57C	0.412

Variant	fraction ligated
G55C A57G	0.773
G55C A57T	0.632
G55T	0.83
G55T A56C	0.014
G55T A56C A57C	0.00348
G55T A56C A57G	0.00397
G55T A56C A57T	0.0111
G55T A56G	0.806
G55T A56G A57C	0.0609
G55T A56G A57G	0.0371
G55T A56G A57T	0.0243
G55T A56T	0.378
G55T A56T A57C	0.00568
G55T A56T A57G	0.0103
G55T A56T A57T	0.0137
G55T A57C	0.717
G55T A57G	0.791
G55T A57T	0.794
A56C	0.767
A56C A57C	0.447
A56C A57G	0.0212
A56C A57T	0.77
A56G	0.781
